The chains are these.
B1: CPEB3 Ribozyme (parent)
chain: GGGGGCCACAGCAGAAGCGUUCACGUCGCGGCCCCUGUCAGAUUCUGGUGAAUCUGCGAAUUCUGCUGU

The variants in this series derive from B1. Put plainly: self-cleavage, relative activity (ratio to wild type); higher = more cleavage; co-transcriptional.
Regarding G17C, the self-cleavage is 0.166.

Turning to G17U, the self-cleavage was 0.643.

For the variant C18A A23U, the self-cleavage was found to be 0.179.

In the case of C18A A23C, the self-cleavage was found to be 0.128.

As to G19A G56U, the self-cleavage turned out to be 0.155.

In the case of C18G C63G, the self-cleavage worked out at 0.104.

In the case of G19A C29A, the self-cleavage is 0.159.

Take G17C U55A: the self-cleavage was found to be 0.177.

With G17U G25U, the self-cleavage is 0.121.

As to G17A U62A, the self-cleavage came out at 0.193.

G17C C27U: the self-cleavage was 0.16.

Take C18G A51G: the self-cleavage amounted to 0.184.

Turning to C18G A51U, the self-cleavage is 0.207.

Consider C18A G48A, for which the self-cleavage was determined as 0.227.

Regarding C18A G48C, the self-cleavage came to 0.146.

Regarding G19A A42G, the self-cleavage came to 0.166.

Turning to G19A A42C, the self-cleavage was 0.13.

Consider G17U A23U, for which the self-cleavage worked out at 0.714.

As for C18G C66G, the self-cleavage came to 0.0954.

As for C18G C66U, the self-cleavage is 0.215.

In the case of C18U G48A, the self-cleavage was found to be 0.948.

In the case of C18A C29U, the self-cleavage amounted to 0.0504.

Take C18A C29A: the self-cleavage worked out at 0.127.

Take C18U C32G: the self-cleavage worked out at 0.213.

As to G17A U26A, the self-cleavage was 0.349.

With G17C C29U, the self-cleavage is 0.199.

With G17C C29G, the self-cleavage amounted to 0.931.

In the case of C18A C27G, the self-cleavage stood at 0.112.

On to C18A C27U, for which the self-cleavage was determined as 0.12.

With G19A G31A, the self-cleavage came out at 0.17.

Regarding G19C A23G, the self-cleavage is 0.11.

With C18G C35A, the self-cleavage worked out at 0.0628.

Take G17U G65C: the self-cleavage worked out at 0.218.

C18A A52C: the self-cleavage is 0.152.

Regarding G17U G58A, the self-cleavage turned out to be 0.343.

G17C C66G: the self-cleavage stood at 0.136.

For G17C C66A, the self-cleavage came to 0.145.

As for C18A C33A, the self-cleavage came to 0.153.

Turning to C18U G30A, the self-cleavage worked out at 0.282.

In the case of G17A U46A, the self-cleavage stood at 0.634.

G17A U46G: the self-cleavage was 0.591.

On to C18A G56A, for which the self-cleavage came to 0.156.

Regarding C18A G56U, the self-cleavage came to 0.133.

As for G17U U44G, the self-cleavage stood at 0.31.

Turning to C18G U38A, the self-cleavage is 0.158.

G17U G48A: the self-cleavage was 0.748.

Regarding G19A G58A, the self-cleavage came out at 0.132.

On to G17C A59G, for which the self-cleavage stood at 0.122.

In the case of G17C A59C, the self-cleavage was 0.104.

Consider G17C U36C, for which the self-cleavage came to 0.118.

With G17A U69A, the self-cleavage was 0.703.

Take G19C A40C: the self-cleavage turned out to be 0.0886.

Regarding C18A C54A, the self-cleavage is 0.162.

As for G17C A51C, the self-cleavage is 0.165.

Take C18G G25A: the self-cleavage came out at 0.174.

Regarding C18A C57U, the self-cleavage came to 0.157.

C18A C57G: the self-cleavage was determined as 0.114.

Take C18G U49A: the self-cleavage is 0.259.

For C18U U26A, the self-cleavage came to 0.669.

As for G19A U67A, the self-cleavage turned out to be 0.147.

Consider C18G U61A, for which the self-cleavage is 0.223.

For the variant C18A G58C, the self-cleavage came to 0.193.

G17C C39U: the self-cleavage was 0.117.

In the case of G19A G37A, the self-cleavage was determined as 0.142.

Consider G19A G37C, for which the self-cleavage was found to be 0.128.

Regarding G17U G19C, the self-cleavage was determined as 0.16.

For C18G A42C, the self-cleavage is 0.124.

In the case of C18A G25A, the self-cleavage was 0.163.

G17C A42G: the self-cleavage was 0.128.

G19C A51G: the self-cleavage was 0.182.

Consider G17U G28U, for which the self-cleavage came out at 0.134.

On to G17C C33G, for which the self-cleavage is 0.171.

In the case of G17U A59C, the self-cleavage was 0.179.

In the case of G17C C35U, the self-cleavage was found to be 0.15.

In the case of G17C C35G, the self-cleavage turned out to be 0.153.

Turning to C18G C27U, the self-cleavage is 0.0906.

For the variant C18U G50U, the self-cleavage worked out at 0.906.

In the case of C18U G50C, the self-cleavage is 0.803.

Consider C18G C22U, for which the self-cleavage stood at 0.192.

On to C18U U64A, for which the self-cleavage stood at 0.351.

For the variant C18U U64C, the self-cleavage came out at 0.383.

Regarding C18G C54U, the self-cleavage was found to be 0.15.

Turning to C18G C54G, the self-cleavage worked out at 0.0613.

Take C18A U36G: the self-cleavage amounted to 0.145.

C18U G56U: the self-cleavage was 0.578.

In the case of C18U G56C, the self-cleavage amounted to 0.341.

Consider G19A U69C, for which the self-cleavage was 0.333.

In the case of G19A U69G, the self-cleavage was 0.249.

In the case of G19A U46A, the self-cleavage is 0.155.

With G19A C32G, the self-cleavage amounted to 0.153.

For the variant G19A C32U, the self-cleavage stood at 0.216.

Turning to C18U C33A, the self-cleavage stood at 0.278.

As to C18U C33G, the self-cleavage was 0.304.

On to C18G C29G, for which the self-cleavage was found to be 0.187.

Turning to G17C U21A, the self-cleavage came to 0.116.

With G19C A42G, the self-cleavage turned out to be 0.11.

Take G19C A42C: the self-cleavage is 0.153.

For the variant G19C A42U, the self-cleavage worked out at 0.173.

As for C18G G47U, the self-cleavage was 0.177.

C18G G47C: the self-cleavage was determined as 0.0572.

In the case of G17U G47U, the self-cleavage amounted to 0.661.

For G17C U53A, the self-cleavage amounted to 0.144.

As to G17C U53C, the self-cleavage worked out at 0.134.

For C18U A40G, the self-cleavage turned out to be 0.742.

Turning to C18U A40U, the self-cleavage worked out at 0.378.

Turning to G17C G37U, the self-cleavage came to 0.107.

Consider G19A A59U, for which the self-cleavage was 0.169.

Consider C18A U46C, for which the self-cleavage turned out to be 0.228.

For the variant C18A C34U, the self-cleavage is 0.16.

Turning to C18A C34G, the self-cleavage is 0.14.

For C18A U53A, the self-cleavage is 0.188.

Regarding C18A U53G, the self-cleavage turned out to be 0.17.

Turning to G19A C54G, the self-cleavage is 0.159.

In the case of C18U G65U, the self-cleavage is 0.245.

Regarding G17U U46A, the self-cleavage stood at 0.624.

As to G17U U46G, the self-cleavage is 0.599.

Turning to G19A G50U, the self-cleavage amounted to 0.133.

Consider C18U C39G, for which the self-cleavage was 0.491.

C18U G19A: the self-cleavage turned out to be 0.144.

Take G17C U20C: the self-cleavage was found to be 0.157.

Regarding G17U C54A, the self-cleavage was 0.188.

Turning to G17U C54U, the self-cleavage came to 0.461.

C18A G68U: the self-cleavage was 0.264.

G17C C63A: the self-cleavage worked out at 0.162.

For the variant G17U U69G, the self-cleavage worked out at 0.768.

For G17U U69A, the self-cleavage turned out to be 0.675.

As to G17U C27U, the self-cleavage was 0.105.

For the variant G19A U36C, the self-cleavage was 0.161.

With C18U U36G, the self-cleavage turned out to be 0.19.

For C18A U43C, the self-cleavage was 0.161.

As for G19A U64G, the self-cleavage was 0.12.

Regarding G19A U64A, the self-cleavage worked out at 0.104.

For the variant C18A C35A, the self-cleavage turned out to be 0.155.

With C18U C24U, the self-cleavage came out at 0.4.

On to C18A A51C, for which the self-cleavage worked out at 0.164.

On to C18U U55G, for which the self-cleavage came out at 0.39.

For the variant C18G U55G, the self-cleavage is 0.175.

On to C18G G65U, for which the self-cleavage was found to be 0.161.

Take C18G A52G: the self-cleavage was 0.244.

Take C18G A52C: the self-cleavage was determined as 0.181.

For the variant C18U G41C, the self-cleavage worked out at 0.211.

C18U G41A: the self-cleavage amounted to 0.331.

For C18U G41U, the self-cleavage worked out at 0.44.

On to G17C G47U, for which the self-cleavage came to 0.149.

For the variant G17C G47A, the self-cleavage worked out at 0.185.

As for C18A U62A, the self-cleavage is 0.133.

For the variant C18A U62G, the self-cleavage turned out to be 0.152.

Turning to C18A U62C, the self-cleavage was determined as 0.141.

Regarding G17C G48A, the self-cleavage was 0.137.

As to G17U U67A, the self-cleavage came to 0.513.

With G17U U67G, the self-cleavage was determined as 0.627.

For the variant G17A U61C, the self-cleavage is 0.264.

In the case of G17A U61A, the self-cleavage was determined as 0.231.

In the case of C18A A42G, the self-cleavage stood at 0.208.

Consider G17C U44G, for which the self-cleavage stood at 0.137.

Regarding G17C U44C, the self-cleavage was determined as 0.141.

Consider G17C U44A, for which the self-cleavage is 0.24.

Consider C18U U67G, for which the self-cleavage worked out at 0.922.

For the variant G17U U38C, the self-cleavage stood at 0.413.

For C18A G19A, the self-cleavage came to 0.135.

On to G19A C34G, for which the self-cleavage was 0.181.

As for G17C C45A, the self-cleavage stood at 0.119.

C18U U20G: the self-cleavage amounted to 0.28.

Turning to G17U C45A, the self-cleavage was determined as 0.447.

With G19A U61G, the self-cleavage was 0.164.

For the variant G19A C39G, the self-cleavage came out at 0.149.

With C18U U62G, the self-cleavage worked out at 0.494.

For the origin of these results see the RNAGym collection of RNA variant scans (doi:10.7554/elife.80360).
